# B1: H2-Kb / Ed23 (parent complex)
# chain 1: QQKVQQSPESLTVSEGAMASLNCTFSDRSSDNFRWYRQHSGKGLEVLVSIFSDGEKEEGSFTAHLNRASLHVFLHIREPQPSDSALYLCAVRGFWTNKVVFGTGTRLQVLP
# chain 2: AQTIHQWPVAEIKAVGSPLSLGCTIKGKSSPNLYWYWQATGGTLQQLFYSITVGQVESVVQLNLSASRPKDDQFILSTEKLLLSHSGFYLCAWSPRQSSYEQYFGPGTRLTVL
# chain 3: not shown
# chain 4: IQKTPQIQVYSRHPPENGKPNILNCYVTQFHPPHIEIQMLKNGKKIPKVEMSDMSFSKDWSFYILAHTEFTPTETDTYACRVKHDSMAEPKTVYWDRDM
# chain 5: SIINFEKL
# Variants of: B1
# Test: % of reporter cells activated (NFAT-GFP), raw; also: test concentration or dose not given here
row,ratio to parent,Variant
1,0.71,chain 5 N4P
2,0.451,chain 5 N4G
3,0.0702,chain 5 N4Q
4,0.631,chain 5 N4L
5,0.108,chain 5 N4C
6,0.348,chain 5 S1M
7,0.515,chain 5 S1W
8,1.27,chain 5 S1E
9,1.61,chain 5 S1Q
10,0.454,chain 5 S1L
11,0.155,chain 5 K7D
12,0.142,chain 5 K7I
13,0.132,chain 5 K7Q
14,0.0934,chain 5 K7E
15,0.654,chain 5 K7Y
16,0.433,chain 5 I3F
17,1.29,chain 5 I3P

row,ratio to parent,Variant
1,1.22,chain 5 I3T
2,1.21,chain 5 I3E
3,1.55,chain 5 I3H
4,1.38,chain 5 I3N
5,1.2,chain 5 I3C
6,1.24,chain 5 I3M
7,1.02,chain 5 L8T
8,0.785,chain 5 L8M
9,0.692,chain 5 L8A
10,0.909,chain 5 L8D
11,1.25,chain 5 L8H
12,0.828,chain 5 L8S
13,0.833,chain 5 L8E
14,1.47,chain 5 I2T
15,1.41,chain 5 F5Q
16,1.17,chain 5 F5L
17,0.0131,chain 5 E6C

# Source: article PMC11480844 (2024)
